The data set addresses cytochrome c (CytC), recombinant human (human, UniProt P99999 1-105). The data set is described as follows: electrochemical aptasensor.

cytochrome c (CytC), recombinant human, sequence (P99999 whole entry): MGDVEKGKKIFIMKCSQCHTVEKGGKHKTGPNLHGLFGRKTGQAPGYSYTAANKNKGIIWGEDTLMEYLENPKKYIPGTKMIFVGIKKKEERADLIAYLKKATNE

B1: CytC aptamer (ssDNA)
DNA: CCGTGTCTGGGGCCGACCGGCGCATTGGGTACGTTGTTGC
modifications: 5' thiol C6 (ThioMC6-D, disulfide reduced); 3' amino modifier (AmMO)
For B1, the Kd was found to be 6.19 ± 1.57 ng/mL.

Usually Kd stands for a measure of binding affinity in units of concentration.

(Values after article doi:10.1101/2024.01.31.578278.)
